Measurements reported in the supplement of paper PMC5998384.

Experiments:
HeLa Kyoto [1] = assay: thermal stability score vs G1/S (z-score of summed log2 fold changes over temperatures); higher = more thermally stable than in G1/S
HeLa Kyoto [2] = assay: melting temperature (median over replicates), in situ; higher = more thermally stable
HeLa Kyoto [3] = assay: solubility change mitosis vs G1/S (difference of NP-40 vs SDS log2 ratios) (log2 ratio difference); higher = more soluble in mitosis
HeLa Kyoto [4] = assay: solubility in G1/S (NP-40 vs SDS abundance) (log2 ratio); higher = more soluble; settings: cell cycle stage: G1/S
[5] = cell cycle stage: early G1 (4.5 h after nocodazole release)
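Wherever melting temperature (median over replicates), in situ is given: HeLa Kyoto cells synchronized by double thymidine or nocodazole block, proteins quantified by TMT10plex mass spectrometry, three independent biological replicates.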
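Wherever solubility change mitosis vs G1/S (difference of NP-40 vs SDS log2 ratios) is given: synchronized HeLa Kyoto cells (double thymidine block for G1/S, nocodazole release for mitosis), protein amounts in NP-40 versus SDS lysates quantified by mass spectrometry, three biological replicates.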
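Wherever solubility in G1/S (NP-40 vs SDS abundance) is given: HeLa Kyoto cells arrested at G1/S by double thymidine block, proteins quantified by TMT10plex mass spectrometry in mild NP-40 versus SDS extracts, three biological replicates.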
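Wherever thermal stability score vs G1/S (z-score of summed log2 fold changes over temperatures) is given: synchronized HeLa Kyoto cells, proteins quantified by TMT10plex mass spectrometry, three biological replicates, mitosis taken 0.5 h after nocodazole release, G1/S directly after double thymidine block.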

For “MARGGRGRRLGLALGLLLALVLAPRVLRAKPTVRKERVVRPDSELGERPPEDNQSFQYDHEAFLGKEDSKTFDQLTPDESKERLGKIVDRIDNDGDGFVTTEELKTWIKRVQKRYIFDNVAKVWKDYDRDKDDKISWEEYKQATYGYYLGNPAEFHDSSDHHTFKKMLPRDERRFKAADLNGDLTATREEFTAFLHPEEFEHMKEIVVLETLEDIDKNGDGFVDQDEYIADMFSHEENGPEPDWVLSEREQFNEFRDLNKDGKLDKDEIRHWILPQDYDHAQAEARHLVYESDKNKDEKLTKEEILENWNMFVGSQATNYGEDLTKNHDEL [RCN1]”, which thermal stability score (HeLa Kyoto [1]; [5]) is on record?
The thermal stability score was 1.52.

What about the thermal stability score (HeLa Kyoto [1]; cell cycle stage: mitosis) of the same sequence?
The thermal stability score was 1.33.

And the melting temperature (HeLa Kyoto [2]; cell cycle stage: G1/S)?
Its melting temperature is 55 °C.

And the melting temperature (HeLa Kyoto [2]; cell cycle stage: mitosis)?
Its melting temperature is 56.4 °C.

What about the “solubility change mitosis (log2)” value (HeLa Kyoto [3]) of the same sequence?
The value was 0.0254.

What about the “solubility in G1/S (log2)” value (HeLa Kyoto [4]) of the same sequence?
Its value is 0.419.

With “MARLWGALSLWPLWAAVPWGGAAAVGVRACSSTAAPDGVEGPALRRSYWRHLRRLVLGPPEPPFSHVCQVGDPVLRGVAAPVERAQLGGPELQRLTQRLVQVMRRRRCVGLSAPQLGVPRQVLALELPEALCRECPPRQRALRQMEPFPLRVFVNPSLRVLDSRLVTFPEGCESVAGFLACVPRFQAVQISGLDPNGEQVVWQASGWAARIIQHEMDHLQGCLFIDKMDSRTFTNVYWMKVND [PDF]” as the sequence, how does the thermal stability score (HeLa Kyoto [1]; [5]) read?
Its thermal stability score is 1.03.

And the thermal stability score (HeLa Kyoto [1]; cell cycle stage: mitosis)?
Its thermal stability score is 0.625.

What about the melting temperature (HeLa Kyoto [2]; cell cycle stage: G1/S) of the same sequence?
Its melting temperature is 54.8 °C.

What about the melting temperature (HeLa Kyoto [2]; cell cycle stage: mitosis) of the same sequence?
Its melting temperature is 54.9 °C.

What about the “solubility change mitosis (log2)” value (HeLa Kyoto [3]) of the same sequence?
Its value is -0.136.

What about the “solubility in G1/S (log2)” value (HeLa Kyoto [4]) of the same sequence?
Its value is 0.308.

How did the thermal stability score (HeLa Kyoto [1]; [5]) turn out when “MARNAEKAMTALARFRQAQLEEGKVKERRPFLASECTELPKAEKWRRQIIGEISKKVAQIQNAGLGEFRIRDLNDEINKLLREKGHWEVRIKELGGPDYGKVGPKMLDHEGKEVPGNRGYKYFGAAKDLPGVRELFEKEPLPPPRKTRAELMKAIDFEYYGYLDEDDGVIVPLEQEYEKKLRAELVEKWKAEREARLARGEKEEEEEEEEEINIYAVTEEESDEEGSQEKGGDDSQQKFIAHVPVPSQQEIEEALVRRKKMELLQKYASETLQAQSEEARRLLGY [ISY1]” was run?
Its thermal stability score is -2.75.

And the thermal stability score (HeLa Kyoto [1]; cell cycle stage: mitosis)?
Its thermal stability score is -1.6.

What about the melting temperature (HeLa Kyoto [2]; cell cycle stage: G1/S) of the same sequence?
The melting temperature was 46.7 °C.

What about the melting temperature (HeLa Kyoto [2]; cell cycle stage: mitosis) of the same sequence?
The melting temperature was 51.2 °C.

And the “solubility change mitosis (log2)” value (HeLa Kyoto [3])?
Its value is 0.254.

What about the “solubility in G1/S (log2)” value (HeLa Kyoto [4]) of the same sequence?
The value was 0.128.

Which results are given for “MARPDDEEGAAVAPGHPLAKGYLPLPRGAPVGKESVELQNGPKAGTFPVNGAPRDSLAAASGVLGGPQTPLAPEEETQARLLPAGAGAETPGAESSPLPLTALSPRRFVVLLIFSLYSLVNAFQWIQYSIISNVFEGFYGVTLLHIDWLSMVYMLAYVPLIFPATWLLDTRGLRLTALLGSGLNCLGAWIKCGSVQQHLFWVTMLGQCLCSVAQVFILGLPSRIASVWFGPKEVSTACATAVLGNQLGTAVGFLLPPVLVPNTQNDTNLLACNISTMFYGTSAVATLLFILTAIAFKEKPRYPPSQAQAALQDSPPEEYSYKKSIRNLFKNIPFVLLLITYGIMTGAFYSVSTLLNQMILTYYEGEEVNAGRIGLTLVVAGMVGSILCGLWLDYTKTYKQTTLIVYILSFIGMVIFTFTLDLRYIIIVFVTGGVLGFFMTGYLPLGFEFAVEITYPESEGTSSGLLNASAQIFGILFTLAQGKLTSDYGPKAGNIFLCVWMFIGIILTALIKSDLRRHNINIGITNVDVKAIPADSPTDQEPKTVMLSKQSESAI [FLVCR1]”?
thermal stability score (HeLa Kyoto [1]; [5]): -1.21; thermal stability score (HeLa Kyoto [1]; cell cycle stage: mitosis): -2.85; melting temperature (HeLa Kyoto [2]; cell cycle stage: G1/S): 57.4 °C; melting temperature (HeLa Kyoto [2]; cell cycle stage: mitosis): 59.1 °C; solubility change mitosis (log2) (HeLa Kyoto [3]): -0.0168; solubility in G1/S (log2) (HeLa Kyoto [4]): -0.162

Which results are given for “MARRGWRRAPLRRGVGSSPRARRLMRPLWLLLAVGVFDWAGASDGGGGEARAMDEEIVSEKQAEESHRQDSANLLIFILLLTLTILTIWLFKHRRARFLHETGLAMIYGLLVGLVLRYGIHVPSDVNNVTLSCEVQSSPTTLLVNVSGKFYEYMLKGEISSHELNNVQDNEMLRKVTFDPEVFFNILLPPIIFYAGYSLKRRHFFRNLGSILAYAFLGTAISCFVIGSIMYGCVTLMKVTGQLAGDFYFTDCLLFGAIVSATDPVTVLAIFHELQVDVELYALLFGESVLNDAVAIVLSSSIVAYQPAGDNSHTFDVTAMFKSIGIFLGIFSGSFAMGAATGVVTALVTKFTKLREFQLLETGLFFLMSWSTFLLAEAWGFTGVVAVLFCGITQAHYTYNNLSTESQHRTKQLFELLNFLAENFIFSYMGLTLFTFQNHVFNPTFVVGAFVAIFLGRAANIYPLSLLLNLGRRSKIGSNFQHMMMFAGLRGAMAFALAIRDTATYARQMMFSTTLLIVFFTVWVFGGGTTAMLSCLHIRVGVDSDQEHLGVPENERRTTKAESAWLFRMWYNFDHNYLKPLLTHSGPPLTTTLPACCGPIARCLTSPQAYENQEQLKDDDSDLILNDGDISLTYGDSTVNTEPATSSAPRRFMGNSSEDALDRELAFGDHELVIRGTRLVLPMDDSEPPLNLLDNTRHGPA [SLC9A6]”?
thermal stability score (HeLa Kyoto [1]; [5]): -2.9; thermal stability score (HeLa Kyoto [1]; cell cycle stage: mitosis): -3.5; melting temperature (HeLa Kyoto [2]; cell cycle stage: G1/S): 56.1 °C; melting temperature (HeLa Kyoto [2]; cell cycle stage: mitosis): 57.1 °C; solubility change mitosis (log2) (HeLa Kyoto [3]): -0.268; solubility in G1/S (log2) (HeLa Kyoto [4]): 0.0823
